Test results taken from patent CN116265487A.

Target: 重组蛋白hVEGF-Fc (human)
Test: cell-based or functional assay

Sequence of 重组蛋白hVEGF-Fc (human) (chain, as listed by the source limits assumed): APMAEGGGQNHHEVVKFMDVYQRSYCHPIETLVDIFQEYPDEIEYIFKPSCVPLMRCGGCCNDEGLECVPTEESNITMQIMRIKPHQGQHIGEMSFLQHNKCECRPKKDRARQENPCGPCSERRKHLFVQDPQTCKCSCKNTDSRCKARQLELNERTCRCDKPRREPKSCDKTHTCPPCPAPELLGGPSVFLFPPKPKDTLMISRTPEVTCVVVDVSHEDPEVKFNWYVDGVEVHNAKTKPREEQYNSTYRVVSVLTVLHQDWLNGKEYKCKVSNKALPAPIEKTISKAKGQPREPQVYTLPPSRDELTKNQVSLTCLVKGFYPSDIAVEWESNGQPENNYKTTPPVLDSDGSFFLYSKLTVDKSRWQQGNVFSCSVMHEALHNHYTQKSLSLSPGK

- 中和VEGF活性IC 50: 0.582 nM
Substance: Faricimab (bispecific antibody)
